This test addresses HBV enveloped particles (HBsAg) released from cells transfected with the pCMV ayw HBV proviral construct (hepatitis B virus (ayw), UniProt P03138-1 1-389; P03138-2 1-281; P03138-3 1-226). In words: cell-based or functional assay.

Sequence of HBV enveloped particles (HBsAg) released from cells transfected with the pCMV ayw HBV proviral construct (P03138 whole entry, chain 1 of 3): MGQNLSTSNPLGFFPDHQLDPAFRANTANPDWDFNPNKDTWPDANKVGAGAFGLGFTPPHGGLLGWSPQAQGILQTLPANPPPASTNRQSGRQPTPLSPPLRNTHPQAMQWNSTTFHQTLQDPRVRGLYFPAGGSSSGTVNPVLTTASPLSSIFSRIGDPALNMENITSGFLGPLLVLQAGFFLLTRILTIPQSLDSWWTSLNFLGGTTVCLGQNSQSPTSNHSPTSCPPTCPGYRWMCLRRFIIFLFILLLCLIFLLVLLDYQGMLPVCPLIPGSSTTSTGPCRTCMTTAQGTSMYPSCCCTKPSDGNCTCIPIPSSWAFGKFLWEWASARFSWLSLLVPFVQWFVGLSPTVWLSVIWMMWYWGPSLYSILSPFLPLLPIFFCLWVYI
Sequence of HBV enveloped particles (HBsAg) released from cells transfected with the pCMV ayw HBV proviral construct (P03138 109-389, chain 2 of 3): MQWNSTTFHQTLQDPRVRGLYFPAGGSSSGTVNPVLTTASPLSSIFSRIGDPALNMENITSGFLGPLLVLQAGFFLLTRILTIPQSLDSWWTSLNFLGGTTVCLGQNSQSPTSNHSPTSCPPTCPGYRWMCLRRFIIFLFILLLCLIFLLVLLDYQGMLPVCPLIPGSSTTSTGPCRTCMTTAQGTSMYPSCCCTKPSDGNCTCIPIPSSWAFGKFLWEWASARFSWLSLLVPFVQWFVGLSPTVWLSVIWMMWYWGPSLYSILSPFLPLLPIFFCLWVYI
Sequence of HBV enveloped particles (HBsAg) released from cells transfected with the pCMV ayw HBV proviral construct (P03138 164-389, chain 3 of 3): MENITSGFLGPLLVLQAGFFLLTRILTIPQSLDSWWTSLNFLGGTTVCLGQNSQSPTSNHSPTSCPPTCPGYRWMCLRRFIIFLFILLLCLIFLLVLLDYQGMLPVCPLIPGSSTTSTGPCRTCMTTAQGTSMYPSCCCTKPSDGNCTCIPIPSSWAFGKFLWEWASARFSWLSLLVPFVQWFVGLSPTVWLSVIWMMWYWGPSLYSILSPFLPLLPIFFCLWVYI

B1: BST-2 with an internal HA tag (BST-2 IHA), wild type (natural protein)
chain: MASTSYDYCRVPMEDGDKRCKLLLGIGILVLLIIVILGVPLIIFTIKANSEACRDGLRAVMECRNVTHLLQQELTEAQKGFQDVEAQAATCNHTVMALMASLDAEKAQGQKKVEELEGEITTLNHKLQDASAEVERLRRENQVLSVRIADKKYYPSSQDSS
In the case of B1, the “BST-2-induced NF-κB signaling (pNF-κB-Luc reporter in 293T cells) in the presence of HBV expression” value was approximately 10 fold.
